Test results taken from paper doi:10.1101/2020.06.12.149468.

Target: DesC, NADH-dependent 20α-hydroxysteroid dehydrogenase of Clostridium scindens ATCC 35704 (Clostridium scindens ATCC 35704)
Experiment: crystal structure

stoichiometry N: 4
Substance: DesC, NADH-dependent 20α-hydroxysteroid dehydrogenase of Clostridium scindens ATCC 35704 (enzyme)
